Results: patent publication US20090203134A1, “REMEDY FOR NERVE CELL REGENERATION” (Kyoto University, priority 2005, published 2009)

B1: Wnt3a: Wnt3a protein (R&D Systems), a secretory glycoprotein of the Wnt family (protein, UniProt P56704 19-352, looked up)
Protein Wnt-3a: SYPIWWSLAVGPQYSSLGSQPILCASIPGLVPKQLRFCRNYVEIMPSVAEGIKIGIQECQHQFRGRRWNCTTVHDSLAIFGPVLDKATRESAFVHAIASAGVAFAVTRSCAEGTAAICGCSSRHQGSPGKGWKWGGCSEDIEFGGMVSREFADARENRPDARSAMNRHNNEAGRQAIASHMHLKCKCHGLSGSCEVKTCWWSQPDFRAIGDFLKDKYDSASEMVVEKHRESRGWVETLRPRYTYFKVPTERDLVYYEASPNFCEPNPETGSFGTRDRTCNVSSHGIDGCDLLCCGRGHNARAERRREKCRCVFHWCCYVSCQECTRVYDVHTCK

Tests used:
Muller cells [1] = assay: Retinal organ culture, BrdU immunostaining of divided cells; type: cell-based, rat; details: 4 days
Procedure: (§1) The retina excluding the pigment epithelium was obtained from a 6-week-old adult DA rat (obtained from Shimizu Laboratory Supplies Co., Ltd. (Kyoto)) and a retinal organ culture was then carried out on a Millicell chamber filter. The retinal organ culture was conducted according to a method described in Methods 2002; 28: 387-395 and Brain Res 2002; 954: 286-293. The culture medium used was 50% Minimum Essential Medium +HEPES (Invitrogen Corporation)/25% Hank's solution (Invitrogen Corporation)/25% inactivated horse serum/200 μM L-glutamine/5.75 mg/ml glucose.
Wnt3a (100 ng/ml; R&D Systems) and BrdU (5ng/ml; SIGMA) were added to the culture medium everyday and a frozen specimen was then prepared after 4 days, followed by investigating the presence or absence of BrdU-positive divided cells by an immunological staining with a BrdU antibody.
Further, an inhibitor of glycogen synthase kinase 3β(GSK-3β), AR-A014418(J, Biol. Chem., Vol, 278, No. 46, p45937-45945, 2003), was added to a culture medium for the retina organ culture and the effect thereof was examined. […] In contrast, the number of BrdU-positive cells in control without the addition of AR-AO14418 was small.

Muller cells [2] = assay: Retinal organ culture, Rhodopsin expression of divided cells (differentiation into retinal nerve cells); type: cell-based, rat; details: 4 day culture with Wnt3a, then 1 week without Wnt3a
Procedure: as §1
Further, after 4 day culture with the addition of Wnt3a, the culture medium was changed, and the culture was then cultured for 1 week without Wnt3a.

Row | Molecule | number of BrdU-positive cells (Muller cells [1]; retina organ culture, 5 μM AR-A014418 together with BrdU, versus control without addition, FIG. 4) | expression of Rhodopsin (marker of the visual cells) in divided cells (Muller cells [2]) | BrdU-positive divided cells (immunological staining with a BrdU antibody) (Muller cells [1]; adult DA rat retinal organ culture, Wnt3a 100 ng/ml added everyday, compared with control without Wnt3a, FIG. 1) | ratio of the divided cells (number of divided cells in INL) (Muller cells [1]; adult DA rat retinal organ culture, Wnt3a 100 ng/ml, FIG. 2) | identity of divided cells (glutamine synthetase and BrdU immunological staining) (Muller cells [1]; adult DA rat retinal organ culture, Wnt3a 100 ng/ml, FIG. 3)
1 | COc1ccc(CNC(=O)Nc2ncc([N+](=O)[O-])s2)cc1 [AR-A014418, reference compound] | the number of BrdU-positive cells was increased | – | – | – | –
2 | B1 | – | a part of the divided cells express Rhodopsin | many BrdU-positive divided cells in the retinal inner nuclear layer (INL) | dramatic increase in the number of the divided cells in INL | most of these divided cells were identified as glutamine synthetase positive Muller cells
